{
  "source": "IntAct's records for PubMed 32494073",
  "parents": {"B1": {"name": "Calcium uptake protein 1, mitochondrial (Homo sapiens), Q9BPX6 (parent)", "chain": "MFRLNSLSALAELAVGSRWYHGGSQPIQIRRRLMMVAFLGASAVTASTGLLWKRAHAESPPCVDNLKSDIGDKGKNKDEGDVCNHEKKTADLAPHPEEKKKKRSGFRDRKVMEYENRIRAYSTPDKIFRYFATLKVISEPGEAEVFMTPEDFVRSITPNEKQPEHLGLDQYIIKRFDGKKISQEREKFADEGSIFYTLGECGLISFSDYIFLTTVLSTPQRNFEIAFKMFDLNGDGEVDMEEFEQVQSIIRSQTSMGMRHRDRPTTGNTLKSGLCSALTTYFFGADLKGKLTIKNFLEFQRKLQHDVLKLEFERHDPVDGRITERQFGGMLLAYSGVQSKKLTAMQRQLKKHFKEGKGLTFQEVENFFTFLKNINDVDTALSFYHMAGASLDKVTMQQVARTVAKVELSDHVCDVVFALFDCDGNGELSNKEFVSIMKQRLMRGLEKPKDMGFTRLMQAMWKCAQETAWDFALPKQ", "partner": "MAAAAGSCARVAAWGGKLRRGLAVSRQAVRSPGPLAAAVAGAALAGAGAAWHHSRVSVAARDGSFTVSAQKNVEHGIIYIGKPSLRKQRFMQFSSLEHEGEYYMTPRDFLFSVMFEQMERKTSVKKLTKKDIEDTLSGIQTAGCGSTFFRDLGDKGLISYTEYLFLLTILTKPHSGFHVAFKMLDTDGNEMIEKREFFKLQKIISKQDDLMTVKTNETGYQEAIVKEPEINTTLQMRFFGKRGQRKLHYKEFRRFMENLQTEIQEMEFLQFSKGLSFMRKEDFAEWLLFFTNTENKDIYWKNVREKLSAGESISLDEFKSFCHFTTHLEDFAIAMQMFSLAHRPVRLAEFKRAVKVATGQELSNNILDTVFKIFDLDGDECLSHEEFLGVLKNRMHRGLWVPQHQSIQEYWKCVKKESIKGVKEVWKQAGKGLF"}, "B2": {"name": "Calcium uptake protein 2, mitochondrial (Homo sapiens), Q8IYU8 (parent)", "chain": "B1 partner"}},
  "data": [
    {"variants_of": "B1", "conditions": "with micu2_human MICU2, Q8IYU8", "values": [
      {"variant": "MFRLNSLSALAELAVGSRWYHGGSQPIQIRRRLMMVAFLGASAVTASTGLLWKRAHAESPPCVDNLKSDIGDKGKNKDEGDVCNHEKKTADLAPHPEEKKKKRSGFRDRKVMEYENRIRAYSTPDKIFRYFATLKVISEPGEAEVFMTPEDFVRSITPNEKQPEHLGLDQYIIKRFDGKKISQEREKFADEGSIFYTLGECGLISFSDYIFLTTVLSTPQRNFEIAFKMFDLNGDGEVDMEEFEQVQSIIRSQTSMGMRHRDRPTTGNTLKSGLCSALTTYFFGADLKGKLTIKNFLEFQRKLQHDVLKLEFERHDPVDGRITERQFGGMLLAYSGVQSKKLTAMQRQLKKHFKEGKGLTFQEVENFFTFLKNINDVDTALSFYHMAGASLDKVTMQQVARTVAKVELSDHVCDVVFALFDCDGNGELSNKEFVSIMKQRLMRGLEKPKDMGFTRLMQAMWKSAQETAWDFALPKQ", "note": "[C463S]", "effect of a mutation on the interaction": "with no effect"}
    ]},
    {"variants_of": "B2", "conditions": "with micu1_human MICU1, Q9BPX6", "values": [
      {"variant": "MAAAAGSCARVAAWGGKLRRGLAVSRQAVRSPGPLAAAVAGAALAGAGAAWHHSRVSVAARDGSFTVSAQKNVEHGIIYIGKPSLRKQRFMQFSSLEHEGEYYMTPRDFLFSVMFEQMERKTSVKKLTKKDIEDTLSGIQTAGCGSTFFRDLGDKGLISYTEYLFLLTILTKPHSGFHVAFKMLDTDGNEMIEKREFFKLQKIISKQDDLMTVKTNETGYQEAIVKEPEINTTLQMRFFGKRGQRKLHYKEFRRFMENLQTEIQEMEFLQFSKGLSFMRKEDFAEWLLFFTNTENKDIYWKNVREKLSAGESISLDEFKSFCHFTTHLEDFAIAMQMFSLAHRPVRLAEFKEAVKVATGQELSNNILDTVFKIFDLDGDECLSHEEFLGVLKNRMHRGLWVPQHQSIQEYWKCVKKESIKGVKEVWKQAGKGLF", "note": "[R352E]", "effect of a mutation on the interaction": "disrupting interaction strength"}
    ]}
  ]
}
